From article PMC4878091

Key:
PFHR9 NC1 domains = assay: SEC
[1] = biological target: recombinant collagen IV α112 protomer (r-Prot); assay: SEC

Q: For PFHR9 NC1 domains, which stoichiometry N (PFHR9 NC1 domains) is on record?
A: 6

Q: For “recombinant collagen IV α112 protomer (r-Prot) (complex)”, which stoichiometry N [1] is on record?
A: 2
